Experimental data: patent publication US20180162944A1 (WUXI BIOLOGICS SHANGHAI, published 2018)
Where a chain is given by its changes, count along the chain named. One block for each binder: values may come before it.

Legend:
murine PD-L1 [1] = target: T1, murine PD-L1 (mouse, UniProt Q9EP73 19-239, limits assumed); test: ELISA or FACS
T1 construct: also called mouse PD-L1

[2] = target: T2, PD-L2 expressed on transfected CHO cells (Homo sapiens (Human), UniProt Q9BQ51 20-273); test: FACS, PD-L2 transfected CHO-K1 cells, single staining, concentration not shown
T2 sequence: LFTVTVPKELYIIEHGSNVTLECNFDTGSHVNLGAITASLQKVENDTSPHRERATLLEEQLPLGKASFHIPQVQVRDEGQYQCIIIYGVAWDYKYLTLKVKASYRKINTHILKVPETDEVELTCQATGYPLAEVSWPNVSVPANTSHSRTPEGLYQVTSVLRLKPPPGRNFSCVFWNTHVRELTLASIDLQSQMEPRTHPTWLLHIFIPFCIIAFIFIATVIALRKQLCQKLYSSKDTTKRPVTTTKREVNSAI
Description: 3.8. Cross-family binding assay by FACS: to examine the cross-family binding activity of the humanized antibodies, cells lines that express PD-L2 were stained with the humanized antibodies, followed by 2nd antibody staining with FITC conjugated goat anti-human IgG Fc. PD-L1 expressing cells were used as positive control. Corresponding parental cell lines were used as negative controls. The stained cells were analyzed by using a BD Biosciences FACSCanto II and FlowJo Version software.
CHO cells transfected with PD-L1 or PD-L2 were stained with humanized PD-L1 antibodies and analysis by FACS.

[3] = target: T3, human PD-L1 expressed on cells (CHO / CHO-K1 cells transfected with full-length human PD-L1); native PD-L1 on … (human, UniProt Q9NZQ7 19-290); test: FACS, CHO cells transfected with full-length human PD-L1, MFI against antibody concentration
T3 construct: whole, on cells; also called PD-L1 expressing CHO cell; PD-L1 transfected CHO cells

recombinant human PD-L1 = target: T4, recombinant human PD-L1 (human, UniProt Q9NZQ7 19-238); test: SPR (ProteOn XPR36), antibody captured on Protein A, human PD-L1 as analyte, 1:1 Langmuir fit
T4 construct: the whole natural entry is named
Description: 3.2. […] Protein A protein (Sigma) was immobilized to a GLM sensor chip (Bio-Rad) through amine coupling. Purified antibodies were flowed over the sensor chip and captured by the Protein A. The chip was rotated 90° and washed with running buffer (1×PBS/0.01% Tween20, Bio-Rad) until the baseline is stable. Five concentrations of human PD-L1 and running buffer were flowed against the antibody flow cell at a flow rate 100 μL/min for an association phase of 240s, followed by 600s dissociation. The chip was regenerated with pH 1.7 H₃PO₄ after each run. The association and dissociation curve was fit to a 1:1 Langmuir binding model using ProteOn software.

cynomolgus monkey PD-L1 [4] = target: T5, cynomolgus monkey PD-L1 (cynomolgus monkey, UniProt G7PSE7 19-238); test: ELISA, cynomolgus PD-L1 coated on the plate, OD450 against antibody concentration; lower panel
T5 construct: also called cyno PD-L1
Description: (§1) 3.7. Cross-species binding assay: the cross-reactivity of the Ab to cynomolgus and murine PD-L1 was measured by ELISA. Human, cyno and mouse PD-L1 were coated on ELISA plates, respectively. After blocking, the humanized antibodies were added into the plate and incubated at room temperature for at least 2 hours. The binding of the antibodies to the coated antigens was detected by using goat anti-human IgG Fc-HRP. The color reaction was developed using TMB substrate and stopped by 2M HCl. The ELISA plates were analyzed at 450 nm using a Molecular Device M5e microplate reader.

[5] = target: T3, human PD-L1 expressed on cells (CHO / …); test: FACS, native PD-L1 on human monocyte-derived dendritic cells, MFI against antibody concentration
[6] = target: T3, human PD-L1 expressed on cells (CHO / …); test: FACS competition on human PD-L1 expressing CHO cells; blocked ligand: mouse Fc-tagged human PD-1; bottom panel
cynomolgus monkey PD-L1 [7] = target: T5, cynomolgus monkey PD-L1; test: ELISA, cynomolgus PD-L1 coated on the plate, OD450 against antibody concentration; upper panel
Description: as §1

[8] = target: T3, human PD-L1 expressed on cells (CHO / …); test: FACS competition on human PD-L1 expressing CHO cells; blocked ligand: mouse Fc-tagged human PD-1; middle panel
murine PD-L1 [9] = target: T1, murine PD-L1; test: ELISA, antigen coated on plate
Description: as §1

[10] = target: T3, human PD-L1 expressed on cells (CHO / …); test: FACS competition on human PD-L1 expressing CHO cells; blocked ligand: mouse Fc-tagged human PD-1; top panel

T3 sequence (Q9NZQ7 19-290): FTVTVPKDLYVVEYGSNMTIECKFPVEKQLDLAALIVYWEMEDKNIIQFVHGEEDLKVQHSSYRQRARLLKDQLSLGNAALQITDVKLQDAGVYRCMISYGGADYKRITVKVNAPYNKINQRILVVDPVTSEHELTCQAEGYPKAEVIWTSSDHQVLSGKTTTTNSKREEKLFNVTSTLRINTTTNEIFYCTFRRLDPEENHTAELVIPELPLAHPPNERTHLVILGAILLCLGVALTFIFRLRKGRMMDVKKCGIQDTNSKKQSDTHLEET
T4 sequence (Q9NZQ7 19-238 limits assumed): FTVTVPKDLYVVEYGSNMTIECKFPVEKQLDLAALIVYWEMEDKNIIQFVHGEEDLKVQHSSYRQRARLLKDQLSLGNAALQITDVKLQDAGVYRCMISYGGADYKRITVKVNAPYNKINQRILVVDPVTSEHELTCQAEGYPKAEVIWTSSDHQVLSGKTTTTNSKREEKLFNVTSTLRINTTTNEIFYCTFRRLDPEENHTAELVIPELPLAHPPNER
T5 sequence (G7PSE7 entry or part of it limits assumed): as the sequence (Q9NZQ7 19-238 limits assumed) above, with A33T, A34S, S62N, R68Q, Q82R, F173L, T185A, T192I, H215L counted along it
T1 sequence (Q9EP73 19-239 limits assumed): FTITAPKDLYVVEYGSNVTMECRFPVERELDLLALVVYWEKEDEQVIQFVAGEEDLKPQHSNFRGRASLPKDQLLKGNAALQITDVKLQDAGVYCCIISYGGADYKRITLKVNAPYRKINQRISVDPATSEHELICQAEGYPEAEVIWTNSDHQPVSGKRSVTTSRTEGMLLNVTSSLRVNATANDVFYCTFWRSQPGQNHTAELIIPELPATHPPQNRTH

B1: 2.74.15.hAb8 (antibody, V domains shown)
VH: QVQLQESGPGLVKPSETLSLTCTVSGYSITSGYIWHWIRQPPGKGLEWIGYIHYSGTTDFNPSLESRVTISVDTSKNQFSLKLSSVTAADTAVYYCAREGRSYGGFAYWGQGTLVTVSS
VL: DIQMTQSPSSLSASVGDRVTITCKASQSVSNGVAWYQQKPGKVPKLLIYYASNRFTGVPSRFSGSGSGTDFTLTISSLQPEDVATYYCQQDYSSPFTFGQGTKLEIK
notes: Humanized antibody with a human constant region of IgG4 isotype
binding result (murine PD-L1 [1]): no binding | binding result [2]: no binding | EC50 [3]: 1160 pM | Kd (recombinant human PD-L1): 67.6 pM | koff (recombinant human PD-L1): 5.48e-05 s⁻¹ | kon (recombinant human PD-L1): 811000 M⁻¹ s⁻¹ | EC50 (cynomolgus monkey PD-L1 [4]): 52.4 pM | EC50 [5]: 2520 pM | IC50 [6]: 196 pM

B2: 2.74.15.hAb5 (antibody, V domains shown)
VH: B1 VH with S25T, P42A
VL: B1 VL with M4L, S10F, V43A, D70E, V83F
notes: as for B1
binding result (murine PD-L1 [1]): no binding | binding result [2]: no binding | EC50 [3]: 1120 pM | Kd (recombinant human PD-L1): 106 pM | koff (recombinant human PD-L1): 0.000135 s⁻¹ | kon (recombinant human PD-L1): 1.27e+06 M⁻¹ s⁻¹ | EC50 (cynomolgus monkey PD-L1 [7]): 26 pM | EC50 [5]: 2000 pM | IC50 [8]: 150 pM

B4: 2.74.15.hAb4 (antibody, V domains shown)
VH: B1 VH with S119A
VL: B1 VL with D1S, I2F, Q3V, Q100S, K103E
notes: as for B1
binding result (murine PD-L1 [9]): no binding | binding result [2]: no binding | EC50 [3]: 1540 pM | Kd (recombinant human PD-L1): 38.9 pM | koff (recombinant human PD-L1): 2.83e-05 s⁻¹ | kon (recombinant human PD-L1): 728000 M⁻¹ s⁻¹ | EC50 (cynomolgus monkey PD-L1 [7]): 5.77 pM | EC50 [5]: 1820 pM | IC50 [10]: 622 pM

Continued by falling EC50 [3], values first:

binding result (murine PD-L1 [1]): no binding | binding result [2]: no binding | EC50 [3]: 1180 pM | Kd (recombinant human PD-L1): 155 pM | koff (recombinant human PD-L1): 0.000146 s⁻¹ | kon (recombinant human PD-L1): 938000 M⁻¹ s⁻¹ | EC50 (cynomolgus monkey PD-L1 [4]): 0.721 pM | EC50 [5]: 2530 pM | IC50 [6]: 199 pM
B5: 2.74.15.hAb7 (antibody, V domains shown)
VH: B1 VH
VL: B1 VL with M4L, S10F, V43A, D70E, V83F
notes: as for B1

binding result (murine PD-L1 [1]): no binding | binding result [2]: no binding | EC50 [3]: 1080 pM | Kd (recombinant human PD-L1): 149 pM | koff (recombinant human PD-L1): 0.000172 s⁻¹ | kon (recombinant human PD-L1): 1.16e+06 M⁻¹ s⁻¹ | EC50 (cynomolgus monkey PD-L1 [7]): 23.8 pM | EC50 [5]: 2390 pM | IC50 [8]: 157 pM
B3: 2.74.15.hAb6 (antibody, V domains shown)
VH: B1 VH with S25T, P42A
VL: B1 VL
notes: as for B1
